Measured values taken from publication PMC10303687.
pKd: −log10 of the molar value.

Molecular target: MDM2_(D. rerio) SWIB domain (zebra fish (Danio rerio))
Experiment: stopped-flow fluorescence kinetics; 10°C, 20 mM sodium phosphate pH 7.4, 150 mM NaCl, 1 mM TCEP; Trp23 emission; MDM2 constant at 0.5–2 μM, p53TAD varied 1–10 μM for k on; k off from displacement of the 1 μM:1 μM complex by 10–20 μM dansylated human p53TAD peptide; K D = k off/k on

Row | pKd | koff [s⁻¹] | kon [M⁻¹ s⁻¹] | Substance
1 | 5.72 | 31 | 1.59e+07 | p53TAD_(D. rerio)^14–27 (peptide)
2 | 6.47 | 5.2 | 1.55e+07 | p53TAD_(D. rerio)^N26L (peptide)
3 | 6.92 | 3.7 | 3.2e+07 | p73TAD_(D. rerio) (peptide)
